Source: PMC8102066 (eLife, 2021)
Residue numbers refer to the chain shown, from its start. Numbers in names are those of the source. Where “and” joins values, the source holds several entries; their conditions need not be identical. Identical values can stand only once.

Assays:
mGluR2 = mGluR2 (Rattus norvegicus, UniProt P31421); test: Inter-LBD FRET (N-terminal SNAP-tags), live cells; details: SNAP-mGluR2
mGluR2-3xTM4 = mGluR2-3xTM4 (Rattus norvegicus, UniProt P31421, A677S/A681F/A685G); test: Inter-LBD FRET (N-terminal SNAP-tags), live cells; details: SNAP-mGluR2-3xTM4
Chain of mGluR2-3xTM4 (P31421 19-872 A677S/A681F/A685G): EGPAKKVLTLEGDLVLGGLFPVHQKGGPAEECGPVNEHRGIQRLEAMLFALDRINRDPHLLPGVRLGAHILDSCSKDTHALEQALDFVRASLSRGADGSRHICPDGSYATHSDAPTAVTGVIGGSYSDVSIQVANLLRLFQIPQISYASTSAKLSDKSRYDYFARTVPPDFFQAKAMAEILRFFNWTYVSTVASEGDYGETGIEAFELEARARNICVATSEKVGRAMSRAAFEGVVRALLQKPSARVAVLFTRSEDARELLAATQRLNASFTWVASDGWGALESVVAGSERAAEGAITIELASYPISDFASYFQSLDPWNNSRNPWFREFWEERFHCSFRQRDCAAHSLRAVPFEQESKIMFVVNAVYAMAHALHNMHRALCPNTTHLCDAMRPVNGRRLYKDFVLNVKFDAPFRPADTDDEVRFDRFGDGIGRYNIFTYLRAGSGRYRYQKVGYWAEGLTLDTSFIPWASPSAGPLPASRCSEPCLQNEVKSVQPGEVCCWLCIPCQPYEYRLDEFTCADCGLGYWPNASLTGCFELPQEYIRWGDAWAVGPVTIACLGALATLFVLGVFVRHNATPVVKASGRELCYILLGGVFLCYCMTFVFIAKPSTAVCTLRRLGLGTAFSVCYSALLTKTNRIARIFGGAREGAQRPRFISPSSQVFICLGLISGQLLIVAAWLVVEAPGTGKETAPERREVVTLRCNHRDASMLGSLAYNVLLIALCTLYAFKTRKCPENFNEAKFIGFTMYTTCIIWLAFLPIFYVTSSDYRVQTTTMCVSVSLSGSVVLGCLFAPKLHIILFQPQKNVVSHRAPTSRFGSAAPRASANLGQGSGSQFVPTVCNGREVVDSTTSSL

[1] = tested on: SNAP-tagged mGluR2 and mGluR3 constructs; test: Surface expression measurements; format: cell-based, rat; details: construct; single measurements
From the text: ImageJ was used to analyze fluorescence intensity of cell clusters. […] Fluorescence intensity values for each construct were normalized to wild-type values for comparison.

mGluR3 = mGluR3 (Rattus norvegicus, UniProt P31422); test: Inter-LBD FRET (N-terminal SNAP-tags), live cells; details: SNAP-mGluR3

B1: SNAP-mGluR2 (protein)
chain: EGPAKKVLTLEGDLVLGGLFPVHQKGGPAEECGPVNEHRGIQRLEAMLFALDRINRDPHLLPGVRLGAHILDSCSKDTHALEQALDFVRASLSRGADGSRHICPDGSYATHSDAPTAVTGVIGGSYSDVSIQVANLLRLFQIPQISYASTSAKLSDKSRYDYFARTVPPDFFQAKAMAEILRFFNWTYVSTVASEGDYGETGIEAFELEARARNICVATSEKVGRAMSRAAFEGVVRALLQKPSARVAVLFTRSEDARELLAATQRLNASFTWVASDGWGALESVVAGSERAAEGAITIELASYPISDFASYFQSLDPWNNSRNPWFREFWEERFHCSFRQRDCAAHSLRAVPFEQESKIMFVVNAVYAMAHALHNMHRALCPNTTHLCDAMRPVNGRRLYKDFVLNVKFDAPFRPADTDDEVRFDRFGDGIGRYNIFTYLRAGSGRYRYQKVGYWAEGLTLDTSFIPWASPSAGPLPASRCSEPCLQNEVKSVQPGEVCCWLCIPCQPYEYRLDEFTCADCGLGYWPNASLTGCFELPQEYIRWGDAWAVGPVTIACLGALATLFVLGVFVRHNATPVVKASGRELCYILLGGVFLCYCMTFVFIAKPSTAVCTLRRLGLGTAFSVCYSALLTKTNRIARIFGGAREGAQRPRFISPASQVAICLALISGQLLIVAAWLVVEAPGTGKETAPERREVVTLRCNHRDASMLGSLAYNVLLIALCTLYAFKTRKCPENFNEAKFIGFTMYTTCIIWLAFLPIFYVTSSDYRVQTTTMCVSVSLSGSVVLGCLFAPKLHIILFQPQKNVVSHRAPTSRFGSAAPRASANLGQGSGSQFVPTVCNGREVVDSTTSSL
modifications: SNAP tag labelled with BG-LD555 (BG-LD655 in two-colour SiMPull); left off: HA, N-terminal, kept | SNAP, N-terminal, kept
- Basal LBD FRET (%) (mGluR2): 0%

B2: SNAP-mGluR2-3xTM4 (protein)
chain: B1 chain with A659S, A663F, A667G
modifications: SNAP tag labelled with BG-LD555; left off: HA, N-terminal, kept | SNAP, N-terminal, kept
- Basal LBD FRET (%) (mGluR2-3xTM4): 0%

B3: SNAP-mGluR3-I788A (protein, UniProt Q14832 23-879, looked up, variant I788A)
Metabotropic glutamate …: LGDHNFLRREIKIEGDLVLGGLFPINEKGTGTEECGRINEDRGIQRLEAMLFAIDEINKDDYLLPGVKLGVHILDTCSRDTYALEQSLEFVRASLTKVDEAEYMCPDGSYAIQENIPLLIAGVIGGSYSSVSIQVANLLRLFQIPQISYASTSAKLSDKSRYDYFARTVPPDFYQAKAMAEILRFFNWTYVSTVASEGDYGETGIEAFEQEARLRNICIATAEKVGRSNIRKSYDSVIRELLQKPNARVVVLFMRSDDSRELIAAASRANASFTWVASDGWGAQESIIKGSEHVAYGAITLELASQPVRQFDRYFQSLNPYNNHRNPWFRDFWEQKFQCSLQNKRNHRRVCDKHLAIDSSNYEQESKIMFVVNAVYAMAHALHKMQRTLCPNTTKLCDAMKILDGKKLYKDYLLKINFTAPFNPNKDADSIVKFDTFGDGMGRYNVFNFQNVGGKYSYLKVGHWAETLSLDVNSIHWSRNSVPTSQCSDPCAPNEMKNMQPGDVCCWICIPCEPYEYLADEFTCMDCGSGQWPTADLTGCYDLPEDYIRWEDAWAIGPVTIACLGFMCTCMVVTVFIKHNNTPLVKASGRELCYILLFGVGLSYCMTFFFIAKPSPVICALRRLGLGSSFAICYSALLTKTNCIARIFDGVKNGAQRPKFISPSSQVFICLGLILVQIVMVSVWLILEAPGTRRYTLAEKRETVILKCNVKDSSMLISLTYDVILVILCTVYAFKTRKCPENFNEAKFIGFTMYTTCIIWLAFLPAFYVTSSDYRVQTTTMCISVSLSGFVVLGCLFAPKVHIILFQPQKNVVTHRLHLNRFSVSGTGTTYSQSSASTYVPTVCNGREVLDSTTSSL
modifications: N-terminal SNAP tag
- Surface Expression [1]: 1.08 and 0.88 and 0.76 and 0.68 and 0.70 and 0.97 and 0.75

B4: SNAP-mGluR3 (protein)
chain: LGDHNFMRREIKIEGDLVLGGLFPINEKGTGTEECGRINEDRGIQRLEAMLFAIDEINKDNYLLPGVKLGVHILDTCSRDTYALEQSLEFVRASLTKVDEAEYMCPDGSYAIQENIPLLIAGVIGGSYSSVSIQVANLLRLFQIPQISYASTSAKLSDKSRYDYFARTVPPDFYQAKAMAEILRFFNWTYVSTVASEGDYGETGIEAFEQEARLRNICIATAEKVGRSNIRKSYDSVIRELLQKPNARVVVLFMRSDDSRELIAAANRVNASFTWVASDGWGAQESIVKGSEHVAYGAITLELASHPVRQFDRYFQSLNPYNNHRNPWFRDFWEQKFQCSLQNKRNHRQVCDKHLAIDSSNYEQESKIMFVVNAVYAMAHALHKMQRTLCPNTTKLCDAMKILDGKKLYKEYLLKINFTAPFNPNKGADSIVKFDTFGDGMGRYNVFNLQQTGGKYSYLKVGHWAETLSLDVDSIHWSRNSVPTSQCSDPCAPNEMKNMQPGDVCCWICIPCEPYEYLVDEFTCMDCGPGQWPTADLSGCYNLPEDYIKWEDAWAIGPVTIACLGFLCTCIVITVFIKHNNTPLVKASGRELCYILLFGVSLSYCMTFFFIAKPSPVICALRRLGLGTSFAICYSALLTKTNCIARIFDGVKNGAQRPKFISPSSQVFICLGLILVQIVMVSVWLILETPGTRRYTLPEKRETVILKCNVKDSSMLISLTYDVVLVILCTVYAFKTRKCPENFNEAKFIGFTMYTTCIIWLAFLPIFYVTSSDYRVQTTTMCISVSLSGFVVLGCLFAPKVHIVLFQPQKNVVTHRLHLNRFSVSGTATTYSQSSASTYVPTVCNGREVLDSTTSSL
modifications: SNAP tag labelled with BG-LD555 (BG-LD655 in two-colour SiMPull); left off: HA, N-terminal, kept | SNAP, N-terminal, kept
- Basal LBD FRET (%) (mGluR3): 20% and 30% and 23% and 24%

B5: SNAP-mGluR3-C127A-I788A (protein)
chain: B4 chain with C105A, I766A
modifications: SNAP tag labelled with BG-LD555; left off: HA, N-terminal, kept | SNAP, N-terminal, kept
- Surface Expression [1]: 1.29 and 0.91 and 1.30 and 0.67 and 0.74 and 0.86 and 1.22 and 0.70
